{"source": "paper PMC1919377", "about": "“Cation induced differential effect on structural and functional properties of Mycobacterium tuberculosis α-Isopropylmalate synthase” (BMC Structural Biology, 2007)", "biological_target": "the molecule itself", "assay": "cross-linking", "data": [{"protein": "isolated TIM barrel domain of Mycobacterium tuberculosis α-isopropylmalate synthase (Arg47 to Phe457) (domain or fragment, also called catalytic TIM barrel domain; Band I; not shown: histidine tag, N-terminal, cleaved) RPFAEEVEPIRLRNRTWPDRVIDRAPLWCAVDLRDGNQALIDPMSPARKRRMFDLLVRMGYKEIEVGFPSASQTDFDFVREIIEQGAIPDDVTIQVLTQCRPELIERTFQACSGAPRAIVHFYNSTSILQRRVVFRANRAEVQAIATDGARKCVEQAAKYPGTQWRFEYSPESYTGTELEYAKQVCDAVGEVIAPTPERPIIFNLPATVEMTTPNVYADSIEWMSRNLANRESVILSLHPHNDRGTAVAAAELGFAAGADRIEGCLFGNGERTGNVCLVTLGLNLFSRGVDPQIDFSNIDEIRRTVEYCNQLPVHERHPYGGDLVYTAFSGSHQDAINKGLDAMKLDADAADCDVDDMLWQVPYLPIDPRDVGRTYEAVIRVNSQSGKGGVAYIMKTDHGLSLPRRLQIEF", "values": [{"measurement": "stoichiometry N", "result": 2}]}]}
